Data reported in patent US10501734B2, “Compositions and methods of use thereof for making polypeptides with many instances of nonstandard amino acids” (Yale University, priority 2014, dated 2019).
“Also recorded” adds a separate entry of the source.

Legend:
[1] = system: GFP(3TAG); assay: nsAA library screening, GFP(3TAG) fluorescence in 384 well plates; assay type: cell-based, E. coli; settings: GFP(3TAG) production in the presence of pAcF, pAzF and 236 other nsAAs
Protocol: Liquid cell cultures of strains harboring chromosomally integrated OTSs and GFP reporter plasmids were inoculated from frozen stocks and grown to confluence overnight. Cultures were then inoculated at 1:20 dilution in LBmin media supplemented with 30 μg/ml kanamycin. Strains were inoculated by addition of 1:20 confluent cell culture (grown overnight) and allowed to grow at 34° C. to an OD600 of 0.5-0.8 in a shaking plate incubator at 650 r.p.m (˜3 h). AARS expression was then induced by the addition of 0.2% arabinose, GFP expression was induced by the addition of 60 ng/ul anhydrotetracycline, and the appropriate nsAA was added to a concentration of 1 mM. Cells were incubated at 34° C. for an additional 16 h. Liquid cell cultures of strains harboring plasmid-based OTSs and GFP or ELP-GFP reporter plasmids were inoculated from frozen stocks and grown to confluence overnight. Cultures were then inoculated at 1:20 dilution in 2×YT media supplemented with 30 μg/ml kanamycin and 20 μg/ml chloramphenicol. […] Cells were allowed to grow at 34° C. to an OD600 of 0.5-0.8 in a shaking plate incubator at 650 r.p.m (˜3 h), reporter protein expression was then induced by the addition of 60 ng/ul anhydrotetracycline, and cells were incubated at 34° C. for an additional 16 h.
For 384 well plate-based assays, fluorescence and OD600 were directly measured following expression. For 96 well plate-based assays, cells were centrifuged at 4,000 g for 4 min. Supernatant medium was removed and cells were resuspended in PBS. This process was repeated twice with PBS. GFP fluorescence was measured on a Biotek spectrophotometric plate reader using excitation and emission wavelengths of 395 and 509 nm, respectively). Fluorescence signals were normalized by dividing the fluorescence counts by the OD600 reading. The nsAAs used in this study were purchased from Sigma-Aldrich (St. Louis, Mo.), Chemlmpex (Wood Dale, Ill.), and Bachem (Torrance, Calif.). Solutions of nsAAs (50 mM) were made in water or 50 mM NaOH; these stock solutions were diluted 50- or 100-fold (to 1 mM final concentration) into medium used for bacterial growth. […]

[2] = system: ELP(30TAG)-GFP; assay: ELP expression and purification, yield of purified ELP(30TAG)-GFP; assay type: cell-based, E. coli
Protocol: Before batch expression, starter cultures (2 mL) of 2×YT media supplemented with 30 μg/mL kanamayacin and 20 μg/mL chloramphenicol were inoculated with transformed cells from a fresh agar plate or from stocks stored at −80° C., and incubated overnight at 34° C. while shaking at 250 rpm. Expression cultures (250 ml flasks containing 50 ml of 2×YT media, antibiotics, 0.2% arabinose and 1 mM of the nsAA) were inoculated with 0.5 ml of the starter culture and incubated at 34° C. for 4 h and then reporter protein expression was induced with 60 μg/mL anhydrotetracyclin.
Cells were harvested 24 h after inoculation by centrifugation at 4,000 g for 15 min at 4° C. The cell pellet was resuspended by vortex in ˜1.5 mL PBS buffer and stored at −80° C. or immediately purified. For purification, resuspended pellets were lysed by ultrasonic disruption (9 cycles of 10 s sonication separated by 40 s intervals). Poly(ethyleneimine) (0.2 mL of 10% solution) was added to each lysed suspension before centrifugation at 15,000 g for 3 min to separate cell debris from the soluble cell lysate.
All ELP constructs were purified by a modified Inverse Transition Cycling (ITC) protocol consisting of multiple “hot” and “cold” spins using sodium citrate to trigger the phase transition. Before purification, the soluble cell lysate was incubated for 1-2 min at ˜65° C. to denature native E. coli proteins. For “hot” spins, the ELP phase transition was triggered by adding sodium citrate to the cell lysate or the product of a previous cycle of ITC at a final concentration of ˜0.5 M. The solutions were then centrifuged at 14,000 g for 3 min and the pellets were resuspended in PBS, followed by a 3-5 min “cold” spin performed without addition of sodium citrate to remove denatured contaminant. Additional rounds of ITC were carried out as needed until sufficient purification was achieved.
Protein concentration was calculated by measuring the OD280 of purified protein stocks according to the following extinction coefficients for ELP(30TAG)-GFP.

[3] = ATP-PPi exchange assay (amino acid activation); assay type: biochemical; settings: for Fold change: relative to progenitor pAcFRS
Protocol: A 25 μl ATP-PPi exchange reaction contained the following components: 100 mM HEPES-KOH (pH 7.5), 30 mM KCl, 10 mM MgCl2, 2 mM DTT, 2 mM KF, 2 mM NaPPi, 5 mM ATP, […], 2 μCi/μl of […] (PerkinElmer) and varied concentrations of amino acids (0.25, 0.5, 1.25, 2.5, 5, 10, and 20 mM, respectively). The reactions were incubated at 37° C. Time points were taken at 2 minutes, 5 minutes and 10 minutes by plotting 1 μl aliquots from the reaction immediately to the PEI-cellulose plates (Merck). For each reaction, 1 μl of blank reaction mixture containing no enzymes was set as background. The reaction mixtures were separated on the plates in 1 M urea and 1 M monopotassium phosphate. The plates were then scanned in a Molecular Dynamics Storm 860 phosphorimager (Amersham Biosciences). The ratio of ATP to PPi was determined to monitor reaction progress. The kinetic constants were derived from plotting initial velocity of a series of reactions that contained varied concentrations of amino acids. The data were analyzed by GraFit 5.0 (Erithacus Software).

| Molecule | nsAA specificity (polyspecificity) [1] | Yield of purified ELP(30TAG)-GFP ([2]; nsAA pAcF, GRO) [mg/L] | Km ([3]; nsAA pAcF) [µM] | kcat ([3]; nsAA pAcF) | Fold change ([3]; nsAA pAcF) | Km ([3]; nsAA pAzF) [µM] | kcat ([3]; nsAA pAzF) | Fold change ([3]; nsAA pAzF) | Yield of purified ELP(30TAG)-GFP ([2]; nsAA pAcF, Non-recoded E. coli) [mg/L] | Yield of purified ELP(30TAG)-GFP ([2]; nsAA 4CF3F, GRO) [mg/L] | Yield of purified ELP(30TAG)-GFP ([2]; nsAA BuY, GRO) [mg/L] | decrease in aminoacylation for pAzF compared with pAcF ([3]; in vitro biochemical analysis) [fold] | Yield of purified ELP(30TAG)-GFP ([2]; nsAA 4ClF, GRO) [mg/L] | Yield of purified ELP(30TAG)-GFP ([2]; nsAA pAzF, GRO) |
| --- | --- | --- | --- | --- | --- | --- | --- | --- | --- | --- | --- | --- | --- | --- |
| pAcFRS.1.t1: pAcFRS variant A167D, R257G, SEQ ID NO: 5 (protein) MDEFEMIKRNTSEIISEEELREVLKKDEKSALIGFEPSGKIHLGHYLQIKKMIDLQNAGFDIIILLADLHAYLNQKGELDEIRKIGDYNKKVFEAMGLKAKYVYGSEFQLDKDYTLNVYRLALKTTLKRARRSMELIAREDENPKVAEVIYPIMQVNGCHYRGVDVDVGGMEQRKIHMLARELLPKKVVCIHNPVLTGLDGEGKMSSSKGNFIAVDDSPEEIRAKIKKAYCPAGVVEGNPIMEIAKYFLEYPLTIKGPEKFGGDLTVNSYEELESLFKNKELHPMRLKNAVAEELIKILEPIRKRL | polyspecifity for at least pAcF, pAzF, StyA, 4IF, 4BrF, 4ClF, 4MeF, 4Cf3F, MeY, 4NO2F, 4BuF, BuY, 2NaA, PheF | 52.6 ± 6.3 | 1680 ± 780 | 6.12 ± 0.74 ×10^−2 s^−1 | 5.34 | 1490 ± 110 | 3.65 ± 0.62 ×10^−2 s^−1 | 1.68 | – | – | – | – | – | – |
| pAcFRS: progenitor M. jannaschii based p-acetyl-L-phenylalanine AARS, SEQ ID NO:1 (Young, et al., 2010) (protein, listed as Methanocaldococcus jannaschii) MDEFEMIKRNTSEIISEEELREVLKKDEKSALIGFEPSGKIHLGHYLQIKKMIDLQNAGFDIIILLADLHAYLNQKGELDEIRKIGDYNKKVFEAMGLKAKYVYGSEFQLDKDYTLNVYRLALKTTLKRARRSMELIAREDENPKVAEVIYPIMQVNGCHYRGVDVAVGGMEQRKIHMLARELLPKKVVCIHNPVLTGLDGEGKMSSSKGNFIAVDDSPEEIRAKIKKAYCPAGVVEGNPIMEIAKYFLEYPLTIKRPEKFGGDLTVNSYEELESLFKNKELHPMRLKNAVAEELIKILEPIRKRL | – | 10.5 ± 5.5 | 7340 ± 1620 | 5.01 ± 0.48 ×10^−2 s^−1 | 1 | 3040 ± 270 | 4.45 ± 0.13 ×10^−2 s^−1 | 1 | 3.04 ± 1.4 | – | – | – | – | – |
| pAcFRS.2.t1: pAcFRS variant L65V, A167D, R257G, SEQ ID NO: 8 (protein) MDEFEMIKRNTSEIISEEELREVLKKDEKSALIGFEPSGKIHLGHYLQIKKMIDLQNAGFDIIIVLADLHAYLNQKGELDEIRKIGDYNKKVFEAMGLKAKYVYGSEFQLDKDYTLNVYRLALKTTLKRARRSMELIAREDENPKVAEVIYPIMQVNGCHYRGVDVDVGGMEQRKIHMLARELLPKKVVCIHNPVLTGLDGEGKMSSSKGNFIAVDDSPEEIRAKIKKAYCPAGVVEGNPIMEIAKYFLEYPLTIKGPEKFGGDLTVNSYEELESLFKNKELHPMRLKNAVAEELIKILEPIRKRL | polyspecifity for at least pAcF, pAzF, StyA, 4IF, 4BrF, 4ClF, 4MeF, 4Cf3F, MeY, 4NO2F, 4BuF, BuY, 2NaA, PheF | – | 2810 ± 890 | 5.43 ± 0.54 ×10^−2 s^−1 | 2.84 | 6590 ± 1700 | 4.22 ± 0.45 ×10^−2 s^−1 | 0.44 | – | 53 ± 5.4 | 64.5 ± 9.7 | 5 | – | – |
| pAzFRS.2.t1: pAcFRS variant E107T, F108Y, Q109M, R257G, SEQ ID NO: 14 (protein) MDEFEMIKRNTSEIISEEELREVLKKDEKSALIGFEPSGKIHLGHYLQIKKMIDLQNAGFDIIILLADLHAYLNQKGELDEIRKIGDYNKKVFEAMGLKAKYVYGSTYMLDKDYTLNVYRLALKTTLKRARRSMELIAREDENPKVAEVIYPIMQVNGCHYRGVDVAVGGMEQRKIHMLARELLPKKVVCIHNPVLTGLDGEGKMSSSKGNFIAVDDSPEEIRAKIKKAYCPAGVVEGNPIMEIAKYFLEYPLTIKGPEKFGGDLTVNSYEELESLFKNKELHPMRLKNAVAEELIKILEPIRKRL | polyspecific for at least pAcF, pAzF, StyA, 4IF, 4BrF, 4ClF, 4MeF, 4Cf3F, MeY, 4NO2F, 4BuF, BuY, 2NaA, PheF | 39.05 ± 3.4 | – | – | – | 1400 ± 350 | 4.14 ± 0.23 ×10^−2 s^−1 | 2.02 | – | – | – | – | 48.2 ± 11.2 | 41.9 ± 6^ mg/L |
| pAzFRS.1.t1: pAcFRS variant D158V, I159M, L162D, A167Y, R257G, SEQ ID NO: 11 (protein) MDEFEMIKRNTSEIISEEELREVLKKDEKSALIGFEPSGKIHLGHYLQIKKMIDLQNAGFDIIILLADLHAYLNQKGELDEIRKIGDYNKKVFEAMGLKAKYVYGSEFQLDKDYTLNVYRLALKTTLKRARRSMELIAREDENPKVAEVIYPIMQVNVMHYDGVDVYVGGMEQRKIHMLARELLPKKVVCIHNPVLTGLDGEGKMSSSKGNFIAVDDSPEEIRAKIKKAYCPAGVVEGNPIMMEIAKYFLEYPLTIKGPEKFGGDLTVNSYEELESLFKNKELHPMRLKNAVAEELIKILEPIRKRL | specific for pAzF; also recorded: exceptional specificity toward pAzF with almost complete exclusion of any other nsAA | – | – | – | – | 990 ± 130 | 4.79 ± 0.67 ×10^−2 s^−1 | 3.32 | – | – | – | – | – | – |
